Here are results for 6 molecules from doi:10.1101/2024.03.17.584836 (bioRxiv, 2024).

Test [1] has as its target Nlg1^E584A/L585A-GFP, in HEK cell lysate (UniProt Q99K10). As to the kind of experiment: single molecule pull-down with counting of photobleaching steps.
The target of test [2] is Nlg1-GFP, wild type, in HEK cell lysate (UniProt Q99K10). The description is as above.
Test [3] deals with Nrx1β-Fc (neurexin-1β C-terminally fused to human Fc) (UniProt Q63373).
Target sequence in this assay (Q63373 47-391): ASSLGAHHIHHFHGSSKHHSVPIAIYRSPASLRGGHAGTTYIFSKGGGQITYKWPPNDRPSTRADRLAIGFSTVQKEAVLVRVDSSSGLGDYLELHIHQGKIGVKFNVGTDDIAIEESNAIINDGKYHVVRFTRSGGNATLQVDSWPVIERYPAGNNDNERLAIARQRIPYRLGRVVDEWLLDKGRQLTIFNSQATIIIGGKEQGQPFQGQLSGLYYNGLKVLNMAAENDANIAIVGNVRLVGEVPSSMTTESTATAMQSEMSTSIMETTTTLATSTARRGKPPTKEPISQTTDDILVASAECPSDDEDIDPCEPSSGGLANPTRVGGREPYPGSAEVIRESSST
Test [4] shares this target. This is another data set of the same source.
Target sequence in this assay (Q63373 47-391): as above
Test [5] shares this target. The source holds these as a separate data set.
Target sequence in this assay (Q63373 47-391): as above
For test [6] the target is unchanged. This is another data set of the same source.
Target sequence in this assay (Q63373 47-391): as above
For test [7] the target is unchanged. Nature of the test: FRAP of soluble fluorescent protein bound to ligand-coated micropatterns.
Target sequence in this assay (Q63373 47-391): as above

Where “and” joins values, the source holds several entries; their conditions need not be identical. Equal values may be shown once. Read-outs that look alike come from different tables or passages of the source.

For the molecule “Nlg1^E584A/L585A-GFP, in HEK cell lysate (from UniProt Q99K10 46-843) (receptor)”, the percent in a monomeric form (1 photobleaching step) in test [1] turned out to be 55%.

The molecule “Nlg1-GFP, wild type, in HEK cell lysate (from UniProt Q99K10 46-843) (receptor)” had a stoichiometry N in test [2] of 2.

Take “HA-Nlg1-GFP (-21), wild type, expressed in COS-7 cells (from UniProt Q99K10 46-843) (receptor)”: in test [3], the enrichment level E (fluorescence on ligand stripes / PEG lines) is 2.3. This molecule also gave a koff in test [4] of 0.004 s⁻¹.

For “AP-Nlg1 (AP-tagged Nlg1, full length), expressed in COS-7 cells (from UniProt Q62765 46-843) (receptor)”, in test [5], the koff of the reaction part of the PSD-95-GFP FRAP curves is 0.005 s⁻¹ and 0.008 s⁻¹.

In the case of “HA-Nlg1^E584A/L585A-GFP (-21), expressed in COS-7 cells (from UniProt Q99K10 46-843) (receptor)”, the enrichment level E (fluorescence on ligand stripes / PEG lines) in test [6] worked out at 2.5.

B1: Nlg1-HaloTag-AF488 (purified dimeric Nlg1 C-terminally fused to Halo-tag, conjugated to AF488) (other)
chain: QKLDDVDPLVTTNFGKIRGIKKELNNEILGPVIQFLGVPYAAPPTGEHRFQPPEPPSPWSDIRNATQFAPVCPQNIIDGRLPEVMLPVWFTNNLDVVSSYVQDQSEDCLYLNIYVPTEDVKRISKECARKPGKKICRKGDIRDSGGPKPVMVYIHGGSYMEGTGNLYDGSVLASYGNVIVITVNYRLGVLGFLSTGDQAAKGNYGLLDLIQALRWTSENIGFFGGDPLRITVFGSGAGGSCVNLLTLSHYSEGNRWSNSTKGLFQRAIAQSGTALSSWAVSFQPAKYARILATKVGCNVSDTVELVECLQKKPYKELVDQDVQPARYHIAFGPVIDGDVIPDDPQILMEQGEFLNYDIMLGVNQGEGLKFVENIVDSDDGVSASDFDFAVSNFVDNLYGYPEGKDVLRETIKFMYTDWADRHNPETRRKTLLALFTDHQWVAPAVATADLHSNFGSPTYFYAFYHHCQTDQVPAWADAAHGDEVPYVLGIPMIGPTELFPCNFSKNDVMLSAVVMTYWTNFAKTGDPNQPVPQDTKFIHTKPNRFEEVAWTRYSQKDQLYLHIGLKPRVKEHYRANKVNLWLELVPHLHNLNDISQYTSTTTKVPSTDITLRPTRKNSTPVTSAFPTAKQDDPKQQPSPFSVDQRDYSTELS
modifications: HaloTag-Alexa488 ligand (Promega G1002) coupled to the HaloTag
For the molecule B1, in test [7], the koff is ~0.0015 s⁻¹.

Broadly, the stoichiometry N is the number of molecules, sites or subunits per partner or assembly. As usually defined, the koff is the first-order rate constant of dissociation. Read a high koff as a short-lived complex.
